This passage reports luminescence without rapamycin as percent of that with rapamycin results from publication doi:10.1101/2020.04.09.034520.

For the assay, the target named is FKBP_C-term (FKBP fused at its C-terminal end to the C-terminal NanoLuc fragment N2). Nature of the assay: split reporter.

As to “FRB_N-term (FRB fused at its C-terminal end to the N-terminal NanoLuc fragment N1)”, the luminescence without rapamycin as percent of that with rapamycin turned out to be 3%.
